Test results from patent publication US20140093496A1 (Chugai, published 2014).
Changes are numbered by the printed parent chain. Numbers in names are those of the source.

T1: FcγRIIa type R extracellular domain, C-terminal His tag (human, UniProt P12318 34-217)
T1 construct: extracellular domain; also called FcgRIIaR; FcγRIIaR; not shown: His tag at the C terminus
T1 sequence (looked up): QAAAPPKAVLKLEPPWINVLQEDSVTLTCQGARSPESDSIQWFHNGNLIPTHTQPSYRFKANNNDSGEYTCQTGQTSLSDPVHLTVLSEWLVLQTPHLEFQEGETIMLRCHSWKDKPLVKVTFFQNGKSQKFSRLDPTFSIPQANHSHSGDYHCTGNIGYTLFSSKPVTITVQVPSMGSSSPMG

B1: IL6R-BP100/IL6R-L (antibody, human IgG1, kappa)
heavy: QVQLQESGPGLVKPSETLSLTCAVSGHSISHDHAWSWVRQPPGEGLEWIGFISYSGITNYNPSLQGRVTISRDNSKNTLYLQMNSLRAEDTAVYYCARSLARTTAMDYWGEGTLVTVSSASTKGPSVFPLAPSSKSTSGGTAALGCLVKDYFPEPVTVSWNSGALTSGVHTFPAVLQSSGLYSLSSVVTVPSSSLGTQTYICNVNHKPSNTKVDKKVEPKSCDKTHTCPPCPAPELLGGDSVFLFPPKPKDTLMISRTPEVTCVVVDVAHEDPEVKFNWYVDGVEVHNAKTKPREEQYNSTYRVVSVLTVLHQDWLNGKEYKCKVSNKALPAPIEKTISKAKGQPREPQVYTLPPSRDELTKNQVSLTCLVKGFYPSDIAVEWESNGQPENNYKTTPPVLDSDGSFFLYSKLTVDKSRWQQGNVFSCSVMHEALHNHYTQESLSLSP
light: not shown
notes: IgG1; P238D/S267A (EU numbering) introduced into IL6R-B3
B2: IL6R-BP118/IL6R-L (antibody, human IgG1, kappa)
heavy: B1 heavy with A269S, K328S
light: not shown
notes: IgG1; P238D/K326S (EU numbering) introduced into IL6R-B3
B3: IL6R-BP116/IL6R-L (antibody, human IgG1, kappa)
heavy: B1 heavy with A269S, K328T
light: not shown
notes: IgG1; P238D/K326T (EU numbering) introduced into IL6R-B3
B4: IL6R-BP103/IL6R-L (antibody, human IgG1, kappa)
heavy: B1 heavy with A269V
light: not shown
notes: IgG1; P238D/S267V (EU numbering) introduced into IL6R-B3
B5: IL6R-BP911/IL6R-L (antibody, human IgG1, kappa)
heavy: B1 heavy with A269S, A332K
light: not shown
notes: IgG1; P238D/A330K (EU numbering) introduced into IL6R-B3
B6: IL6R-BP107/IL6R-L (antibody, human IgG1, kappa)
heavy: B1 heavy with A269S, H270E
light: not shown
notes: IgG1; P238D/H268E (EU numbering) introduced into IL6R-B3
B7: IL6R-2B171/IL6R-L (antibody, human IgG1, kappa)
heavy: B1 heavy with A269S, V325L
light: not shown
notes: IgG1; P238D/V323L (EU numbering) introduced into IL6R-B3
B8: IL6R-BP126/IL6R-L (antibody, human IgG1, kappa)
heavy: B1 heavy with A269S, K328L
light: not shown
notes: IgG1; P238D/K326L (EU numbering) introduced into IL6R-B3
B9: IL6R-BP078/IL6R-L (antibody, human IgG1, kappa)
heavy: B1 heavy with A269S, A332M
light: not shown
notes: IgG1; P238D/A330M (EU numbering) introduced into IL6R-B3
B10: IL6R-BP213/IL6R-L (antibody, human IgG1, kappa)
heavy: B1 heavy with E235D, A269S, H270D, P273G, A332R
light: not shown
notes: Anti-human IL-6 receptor IgG1
B11: IL6R-BP196/IL6R-L (antibody, human IgG1, kappa)
heavy: B1 heavy with L236Y, A269S, H270D, P273G, K328A, A332K
light: not shown
notes: Anti-human IL-6 receptor IgG1
B12: IL6R-BP198/IL6R-L (antibody, human IgG1, kappa)
heavy: B1 heavy with E235D, L236Y, A269S, H270D, P273G, K328A, A332K
light: not shown
notes: Anti-human IL-6 receptor IgG1
B13: IL6R-BP208/IL6R-L (antibody, human IgG1, kappa)
heavy: B1 heavy with E235D, G239D, A269S, H270D, P273G, A332R
light: not shown
notes: Anti-human IL-6 receptor IgG1
B14: IL6R-BP211/IL6R-L (antibody, human IgG1, kappa)
heavy: B1 heavy with E235D, A269S, H270D, P273G, K328A, A332R
light: not shown
notes: Anti-human IL-6 receptor IgG1
B15: IL6R-BP209/IL6R-L (antibody, human IgG1, kappa)
heavy: B1 heavy with G239D, A269S, H270D, P273G, K328A, A332R
light: not shown
notes: Anti-human IL-6 receptor IgG1
B16: IL6R-BP197/IL6R-L (antibody, human IgG1, kappa)
heavy: B1 heavy with E235D, L236Y, G239D, A269S, H270D, P273G, Y298D, K328D, A332K
light: not shown
notes: Anti-human IL-6 receptor IgG1
B17: IL6R-BP207/IL6R-L (antibody, human IgG1, kappa)
heavy: B1 heavy with E235D, A269S, A332R
light: not shown
notes: Anti-human IL-6 receptor IgG1
B18: IL6R-BP203/IL6R-L (antibody, human IgG1, kappa)
heavy: B1 heavy with G239D, A269S, P273G, A332R
light: not shown
notes: Anti-human IL-6 receptor IgG1
B19: IL6R-BP195/IL6R-L (antibody, human IgG1, kappa)
heavy: B1 heavy with E235D, L236Y, G239D, A269S, H270D, P273G, Y298D, K328A, A332K
light: not shown
notes: Anti-human IL-6 receptor IgG1
B20: IL6R-BP199/IL6R-L (antibody, human IgG1, kappa)
heavy: B1 heavy with E235D, A269S, K328D, A332R
light: not shown
notes: Anti-human IL-6 receptor IgG1
B21: IL6R-BP206/IL6R-L (antibody, human IgG1, kappa)
heavy: B1 heavy with E235D, A269S, P273G, A332R
light: not shown
notes: Anti-human IL-6 receptor IgG1

Each binder was assayed against T1, FcγRIIa type R extracellular domain, … (assay: SPR (Biacore), antibody captured, FcγR as analyte).
Excerpt: (§1) Furthermore, KD(IIaR)/KD(IIb) and KD(IIaH)/KD(IIb) in the table respectively represent the value obtained by dividing the KD value of each variant for FcγRIIaR by the KD value of each variant for FcγRIIb, and the value obtained by dividing the KD value of each variant for FcγRIIaH by the KD value of each variant for FcγRIIb. KD(IIb) of the parent polypeptide/KD(IIb) of the altered polypeptide refers to the value obtained by dividing the KD value of the parent polypeptide for FcγRIIb by the KD value of each variant for FcγRIIb.
Kinetic analyses for calculating the KD values of each altered antibody for FcγR were performed according to the following method. First, antibodies of interest were captured onto the above-mentioned sensor chips, and an Fcγ receptor diluted with the running buffer was allowed to interact. The Biacore Evaluation Software was used to globally fit the measured results to the obtained sensorgram using the 1:1 Langmuir binding model, and the association rate constant ka (L/mol/s) and the dissociation rate constant kd (1/s) were calculated; and from those values the dissociation constants KD (mol/L) were calculated.

Kd [µM] | Binder
7.8 | B1
15 | B2
15 | B3
11 | B4
16 | B5
12 | B6
16 | B7
11 | B8
15 | B9

These binders were tested against T2, FcγRIIIa type V extracellular domain, C-terminal His tag (human, UniProt P08637 17-208) (assay: SPR (Biacore), antibody captured on chip, FcγR extracellular domain as analyte; 1:1 kinetic fit or Equation 2 for weak binding).
T2 construct: extracellular domain; also called FcgRIIIaV; FcγRIIIaV; not shown: His tag at the C terminus
Excerpt: IL6R-L was utilized as the common antibody L chain for all of the antibodies, the antibodies were expressed and purified according to the method of Reference Example 1, and binding to each of the FcγRs (FcγRIa, FcγRIIa H type, FcγRIIa R type, FcγRIIb, and FcγRIIIa V type) was comprehensively evaluated by the method of Reference Example 2.
as §1

T2 sequence (P08637 17-208 F176V): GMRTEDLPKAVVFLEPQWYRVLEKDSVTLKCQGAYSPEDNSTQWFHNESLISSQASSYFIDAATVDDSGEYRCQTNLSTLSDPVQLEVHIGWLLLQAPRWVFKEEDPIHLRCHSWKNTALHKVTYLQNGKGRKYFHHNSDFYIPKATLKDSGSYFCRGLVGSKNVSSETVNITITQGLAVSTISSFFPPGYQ

Kd [µM] | Binder
63 | B10
51 | B11
44 | B12
53 | B13
73 | B14
41 | B15
33 | B16
65 | B17
72 | B18
31 | B19
61 | B20
69 | B21
